US8889392B2, “Monolignol 4-O-methyltransferases and uses thereof” (Brookhaven Science Associates, LLC, priority 2010, dated 2014)
“And” between values parts separate entries of the source, which are not always exact repeats. Identical values can stand only once.

Tests used:
Type in all cases: biochemical
horseradish peroxidase = molecular target: T1, horseradish peroxidase (Armoracia rusticana, UniProt P00433); experiment: Peroxidase-catalyzed dehydrogenative polymerization in vitro; details: incubation with horseradish peroxidase and H2O2
T1 sequence (P00433 31-338 limits assumed): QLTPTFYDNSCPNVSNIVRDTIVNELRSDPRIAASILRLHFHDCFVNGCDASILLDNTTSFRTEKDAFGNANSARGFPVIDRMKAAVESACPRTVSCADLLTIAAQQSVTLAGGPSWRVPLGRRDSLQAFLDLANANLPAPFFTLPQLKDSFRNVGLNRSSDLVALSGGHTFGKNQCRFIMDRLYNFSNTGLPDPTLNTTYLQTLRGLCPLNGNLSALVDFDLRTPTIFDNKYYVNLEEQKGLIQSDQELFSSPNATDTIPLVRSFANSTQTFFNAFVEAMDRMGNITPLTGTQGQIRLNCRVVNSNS
From the text: In vitro dehydrogenative polymerization is commonly used as a biomimetic model to explore in vivo lignin formation. Using the novel mutant variants, we produced methylated monolignol—the 4-O-methoxy-coniferyl alcohol, and subjected it to peroxidase-catalyzed dehydrogenative polymerization, compared to the classic p-coniferyl alcohol. […] The oligomer products include a predominant dimer, the β-5 inter subunit linkage, G(8-5)G, and a few minor peaks of the G(8-O-4)G and G(8-8)G dimers.

[1] = Substrate specificity of mutant variants; details: p-hydroxycinnamyl alcohols and p-hydroxycinnamaldehydes
From the text: Kinetically, the mutant T133L/E165I/F175I equally preferred two major types of monolignols in angiosperms, i.e., coniferyl and sinapyl alcohols, whereas the T133L/L139Q/E165F variant favored coniferyl slightly over the sinapyl alcohol.

[2] = Kinetic parameters for 4-O-methylation of coniferyl alcohol; details: for Km / Vmax: substrate coniferyl alcohol, 4-O-methylation
Description: E. coli transformants were inoculated in 96 well plates. Protein production was induced with 0.2 mM isopropyl β-D-1-thiogalactopyranoside, and the harvested cell cultures were lysed with 60 μl of BugBuster solution per well (Novagen). Enzymatic activity was screened using the lysates directly or after purification of the recombinant protein in a 96 well purification plate.
Screening was performed in a polypropylene microplate (Bio-Rad) containing 50 μl of the reaction in each well, 500 μM p-coniferyl-alcohol substrates, and 500 μM S-adenosyl-L-methionine augmented with (isotopic assay) or without (LC-MS assay) 0.005 μCi of [methyl-^14C]S-adenosyl-L-methionine, and 20 μl of lysates or purified protein (Ni^+ column eluate). (see Bhuiya, M. W. and Liu, C. J. (2010) J. Biol. Chem. 285:277-285 and its supplemental material).
To further optimize the catalytic efficiency of MOMT on the desired para-methylation of monolignols, based on the crystal structure of MOMT3, we identified additional amino acid residues that either directly contact or are proximate to the bound coniferyl alcohol, particularly the residues near the 3-methoxy-buried pocket. They are F130, A134, V138, L139, F157, Y161, N164, F166, Y168, H169, H173, F179, M183, N186, T319, L322, M323, A325, Y326, and N327. We then carried out the next round saturation mutagenesis on the recognized amino acid sites using MOMT3 as the parental template. […] The MOMT4 enzyme predominantly reacted with coniferyl and sinapyl alcohols, with preference for the latter, while the MOMT5 favors for coniferyl alcohol.

[3] = Kinetic parameters for 4-O-methylation of sinapyl alcohol; details: for Km / Vmax: substrate sinapyl alcohol, 4-O-methylation

Q: With COc1cc(/C=C/CO)ccc1O [coniferyl alcohol, p-coniferyl alcohol] as the molecule, how does the conversion and oligomerization (horseradish peroxidase) read?
A: oxidized and conjugated, yielding several oligolignols

B1: T133I-E165I-F175I: IEMT triple mutant, monolignol 4-O methyltransferase-3 (protein, listed as Clarkia breweri)
chain: MGSTGNAEIQIIPTHSSDEEANLFAMQLASAAVLPMALKAAIELDVLEIMAKSVPPSGYISPAEIAAQLPTTNPEAPVMLDRVLRLLASYSVVTYTLRELPSGKVERLYGLAPVCKFLTKNEDGVSLAPFLLIATDKVLLEPWFYLKDAILEGGIPFNKAYGMNIFDYHGTDHRINKVFNKGMSSNSTITMKKILEMYNGFEGLTTIVDVGGGTGAVASMIVAKYPSINAINFDLPHVIQDAPAFSGVEHLGGDMFDGVPKGDAIFIKWICHDWSDEHCLKLLKNCYAALPDHGKVIVAEYILPPSPDPSIATKVVIHTDALMLAYNPGGKERTEKEFQALAMASGFRGFKVASCAFNTYVMEFLKTA
Q: Which results are given for B1?
A: activity for lignin monomeric precursors [1]: high activities; catalytic efficiency ([2]; coniferyl alcohol): 1245 M⁻¹ s⁻¹; fold increase of catalytic efficiency compared with the wild-type enzyme ([2]; coniferyl alcohol): more than 70 fold; Km [2]: 279 µM and 199 µM; Vmax [2]: 556 ± 35 nmol/mg/min and 371 ± 15 nmol/mg/min; catalytic efficiency ([3]; sinapyl alcohol): 1463 M⁻¹ s⁻¹; fold increase of catalytic efficiency compared with the wild-type enzyme ([3]; sinapyl alcohol): more than 70 fold; Km [3]: 120 µM and 119 µM; Vmax [3]: 275 ± 10 nmol/mg/min and 260 ± 6 nmol/mg/min

B2: T133L/L139Q/E165F: IEMT triple mutant variant (protein, listed as Clarkia breweri)
chain: MGSTGNAEIQIIPTHSSDEEANLFAMQLASAAVLPMALKAAIELDVLEIMAKSVPPSGYISPAEIAAQLPTTNPEAPVMLDRVLRLLASYSVVTYTLRELPSGKVERLYGLAPVCKFLTKNEDGVSLAPFLLLATDKVQLEPWFYLKDAILEGGIPFNKAYGMNFFDYHGTDHRFNKVFNKGMSSNSTITMKKILEMYNGFEGLTTIVDVGGGTGAVASMIVAKYPSINAINFDLPHVIQDAPAFSGVEHLGGDMFDGVPKGDAIFIKWICHDWSDEHCLKLLKNCYAALPDHGKVIVAEYILPPSPDPSIATKVVIHTDALMLAYNPGGKERTEKEFQALAMASGFRGFKVASCAFNTYVMEFLKTA
Q: Which “activity for lignin monomeric precursors” value [1] does the source give for B2 here?
A: high activities

B3: T133I-E165I-F175I-F166W-T135N: IEMT penta mutant derived from MOMT3 (protein)
chain: MGSTGNAEIQIIPTHSSDEEANLFAMQLASAAVLPMALKAAIELDVLEIMAKSVPPSGYISPAEIAAQLPTTNPEAPVMLDRVLRLLASYSVVTYTLRELPSGKVERLYGLAPVCKFLTKNEDGVSLAPFLLIANDKVLLEPWFYLKDAILEGGIPFNKAYGMNIWDYHGTDHRINKVFNKGMSSNSTITMKKILEMYNGFEGLTTIVDVGGGTGAVASMIVAKYPSINAINFDLPHVIQDAPAFSGVEHLGGDMFDGVPKGDAIFIKWICHDWSDEHCLKLLKNCYAALPDHGKVIVAEYILPPSPDPSIATKVVIHTDALMLAYNPGGKERTEKEFQALAMASGFRGFKVASCAFNTYVMEFLKTA
Q: Which results are given for B3?
A: Km [2]: 167 ± 11 µM; Vmax [2]: 431 ± 12 nmol/mg/min; Km [3]: 54 ± 14 µM; Vmax [3]: 115 ± 9 nmol/mg/min

B4: IEMT wt: C. breweri (iso)eugenol 4-O-methyltransferase, wild type (GenBank U86760.1, SEQ ID NO: 1) (protein, listed as Clarkia breweri)
chain: MGSTGNAEIQIIPTHSSDEEANLFAMQLASAAVLPMALKAAIELDVLEIMAKSVPPSGYISPAEIAAQLPTTNPEAPVMLDRVLRLLASYSVVTYTLRELPSGKVERLYGLAPVCKFLTKNEDGVSLAPFLLTATDKVLLEPWFYLKDAILEGGIPFNKAYGMNEFDYHGTDHRFNKVFNKGMSSNSTITMKKILEMYNGFEGLTTIVDVGGGTGAVASMIVAKYPSINAINFDLPHVIQDAPAFSGVEHLGGDMFDGVPKGDAIFIKWICHDWSDEHCLKLLKNCYAALPDHGKVIVAEYILPPSPDPSIATKVVIHTDALMLAYNPGGKERTEKEFQALAMASGFRGFKVASCAFNTYVMEFLKTA
Q: Which results are given for B4?
A: activity for lignin monomeric precursors [1]: barely measurable; Km [2]: 1590 ± 182 µM; Vmax [2]: 42 ± 4 nmol/mg/min; Km [3]: 1500 ± 214 µM; Vmax [3]: 45 ± 4 nmol/mg/min
